# According to PMC4267653, “DNA cleavage by CgII and NgoAVII requires interaction between N- and R-proteins and extensive nucleotide hydrolysis” (Nucleic Acids Research, 2014):
# Assays:
# [1] = molecular target: N.CglI (Corynebacterium glutamicum ATCC 13032); experiment: SAXS; full-length R- and N-proteins in 20 mM Tris-HCl pH 8.0, 400 mM KCl, 0.1 mM EDTA, 1 mM DTT; molecular weight from scattering data (MoW)
# [2] = molecular target: N.CglI (Corynebacterium glutamicum ATCC 13032); experiment: SEC; gel filtration of single proteins and domains, Superdex 200 HR, room temperature, 20 mM Tris-HCl pH 8.0, 300 mM NaCl, 5 mM 2-mercaptoethanol; 20 μM (monomer) loading concentration
# [3] = molecular target: R.CglI (Corynebacterium glutamicum ATCC 13032)
# [4] = system: R.CglI (Corynebacterium glutamicum ATCC 13032); experiment: EMSA; conditions: no metal, 0.1 mM EDTA; EMSA: 1 nM 33P-DNA, 1-500 nM protein monomer, 40 mM Tris-acetate pH 8.3 (25°C), 0.1 mM EDTA (NgoAVII: 5 mM Ca-acetate instead), 0.1 mg/ml BSA, 10% glycerol …
# [5] = system: R.CglI in RN.CglI complex;N.CglI (Corynebacterium glutamicum ATCC 13032;Corynebacterium glutamicum ATCC 13032); experiment: EMSA; conditions: EMSA: 1 nM 33P-DNA, 1-500 nM protein monomer, 40 mM Tris-acetate pH 8.3 (25°C), 0.1 mM EDTA (NgoAVII: 5 mM Ca-acetate instead), 0.1 mg/ml BSA, 10% glycerol …
# [6] = molecular target: N.CglI-DEAD-Z1 domain (Corynebacterium glutamicum ATCC 13032); experiment: SEC; gel filtration of single proteins and domains, Superdex 200 HR, room temperature, 20 mM Tris-HCl pH 8.0, 300 mM NaCl, 5 mM 2-mercaptoethanol; 20 μM (monomer) loading concentration
# [7] = molecular target: N.CglI isolated Z1-C domain (Corynebacterium glutamicum ATCC 13032); experiment: as above
# [8] = molecular target: R.CglI (containing a StrepII-tag), co-expressed with N.CglI (Corynebacterium glutamicum ATCC 13032); experiment: SEC + other: SAXS; purified co-expressed RN.CglI complex; molecular weight close to the sum of the R.CglI and N.CglI dimers
# [9] = molecular target: R.CglI (containing a StrepII-tag), co-expressed with N.CglI (Corynebacterium glutamicum ATCC 13032); experiment: densitometry of SDS-PAGE; purified RN.CglI complex resolved by SDS/PAGE, molar ratio of the two bands
# [10] = molecular target: N.CglI (containing a His6-tag), co-expressed with R.CglI (Corynebacterium glutamicum ATCC 13032); experiment: SEC + other: SAXS; purified co-expressed RN.CglI complex; molecular weight close to the sum of the R.CglI and N.CglI dimers
# [11] = molecular target: R.CglI (Corynebacterium glutamicum ATCC 13032); experiment: SAXS; full-length R- and N-proteins in 20 mM Tris-HCl pH 8.0, 400 mM KCl, 0.1 mM EDTA, 1 mM DTT; molecular weight from scattering data (MoW)
# [12] = molecular target: R.CglI (Corynebacterium glutamicum ATCC 13032); experiment: SEC; gel filtration of single proteins and domains, Superdex 200 HR, room temperature, 20 mM Tris-HCl pH 8.0, 300 mM NaCl, 5 mM 2-mercaptoethanol; 20 μM (monomer) loading concentration
# [13] = molecular target: N.CglI isolated Z1 domain (Corynebacterium glutamicum ATCC 13032); experiment: as above
# [14] = molecular target: R.NgoAVII (Neisseria gonorrhoeae FA1090); experiment: SAXS; full-length R- and N-proteins in 20 mM Tris-HCl pH 8.0, 400 mM KCl, 0.1 mM EDTA, 1 mM DTT; molecular weight from scattering data (MoW)
# [15] = molecular target: R.NgoAVII (Neisseria gonorrhoeae FA1090); experiment: SEC; gel filtration of single proteins and domains, Superdex 200 HR, room temperature, 20 mM Tris-HCl pH 8.0, 300 mM NaCl, 5 mM 2-mercaptoethanol; 20 μM (monomer) loading concentration
# [16] = molecular target: the molecule itself; experiment: as above
molecule,measurement,setting,value
N.CglI (enzyme),stoichiometry N,[1],2
same,stoichiometry N,[2],2
same,ATP hydrolysis rate of N.CglI at saturating ATP (4 mM) and optimal concentrations of DNA and R.CglI (malachite green assay),[3],176 ATP/s
TACAATCGATAATAGCCGCCGTGCGAGCCCATT (double strand) [33 bp cognate duplex],Kd,[4],9.2 nM
same,Kd,[5],1.9 nM
N.CglI-DEAD-Z1 domain (domain or fragment),stoichiometry N,[6],2
N.CglI isolated Z1-C domain (domain or fragment),stoichiometry N,[7],2
"R.CglI (containing a StrepII-tag), co-expressed with N.CglI (enzyme)",stoichiometry N,[8],2
"N.CglI (containing a His6-tag), co-expressed with R.CglI (enzyme)",stoichiometry N (N.CglI per R.CglI),[9],0.75
same,stoichiometry N,[10],2
same,stoichiometry N (N.CglI per R.CglI (2:2)),[8],1
R.CglI (enzyme),stoichiometry N,[11],2
same,stoichiometry N,[12],2
N.CglI isolated Z1 domain (domain or fragment),stoichiometry N,[13],2
R.NgoAVII (enzyme),stoichiometry N,[14],2
same,stoichiometry N,[15],2
R.CglI isolated PLD domain (domain or fragment) PLDKFFDKELKDTHHLDITVGYISEKSLQYLLLIAGTHPDLTITLTCGMHAREGMTAAQLHHARVLHDYLSDHDRGGVFVIPRLRYHGKIYLFHKNQHTDPIAYIGSANLSAIVPGYTSTFETGVILDPAPEDLVLH,stoichiometry N,[16],2
